Measured values from patent US20130059806A1.

Columns and labels:
[1] = target: biotin-FLAG-tagged TR2 and TR4 (biotin-FLAG-TR2 and biotin-FLAG-TR4 co-expressed in BirA-expressing MEL cells) (UniProt Q505F1); test: streptavidin purification of biotin-tagged TR2/TR4 from MEL nuclear extract, mass spectrometry, experiment #3
[2] = target: biotin-FLAG-tagged TR2 and TR4 (biotin-FLAG-TR2 and biotin-FLAG-TR4 co-expressed in BirA-expressing MEL cells) (UniProt Q505F1); test: streptavidin purification of biotin-tagged TR2/TR4 from MEL nuclear extract, mass spectrometry, experiment #2
[3] = target: biotin-FLAG-tagged TR2 and TR4 (biotin-FLAG-TR2 and biotin-FLAG-TR4 co-expressed in BirA-expressing MEL cells) (UniProt Q505F1); test: streptavidin purification of biotin-tagged TR2/TR4 from MEL nuclear extract, mass spectrometry, experiment #1

Chain of biotin-FLAG-tagged TR2 and TR4 (biotin-FLAG-TR2 and biotin-FLAG-TR4 co-expressed in BirA-expressing MEL cells) (Q505F1 whole entry, chain 1 of 2): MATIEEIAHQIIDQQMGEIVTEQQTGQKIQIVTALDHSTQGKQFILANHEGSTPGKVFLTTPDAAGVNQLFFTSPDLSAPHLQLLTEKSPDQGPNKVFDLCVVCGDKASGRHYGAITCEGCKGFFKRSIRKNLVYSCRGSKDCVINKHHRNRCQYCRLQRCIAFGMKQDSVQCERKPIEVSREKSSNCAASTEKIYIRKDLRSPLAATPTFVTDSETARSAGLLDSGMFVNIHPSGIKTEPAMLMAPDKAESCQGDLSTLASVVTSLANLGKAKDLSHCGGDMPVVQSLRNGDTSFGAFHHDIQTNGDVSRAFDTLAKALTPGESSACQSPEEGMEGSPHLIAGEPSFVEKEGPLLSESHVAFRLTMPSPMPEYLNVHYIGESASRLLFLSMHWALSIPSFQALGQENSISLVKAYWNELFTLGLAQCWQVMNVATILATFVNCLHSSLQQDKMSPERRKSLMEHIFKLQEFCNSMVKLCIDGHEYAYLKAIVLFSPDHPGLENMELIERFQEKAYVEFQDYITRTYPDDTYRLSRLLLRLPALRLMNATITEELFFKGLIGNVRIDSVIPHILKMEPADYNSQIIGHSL
Chain of biotin-FLAG-tagged TR2 and TR4 (biotin-FLAG-TR2 and biotin-FLAG-TR4 co-expressed in BirA-expressing MEL cells) (P49117 whole entry, chain 2 of 2, further chain): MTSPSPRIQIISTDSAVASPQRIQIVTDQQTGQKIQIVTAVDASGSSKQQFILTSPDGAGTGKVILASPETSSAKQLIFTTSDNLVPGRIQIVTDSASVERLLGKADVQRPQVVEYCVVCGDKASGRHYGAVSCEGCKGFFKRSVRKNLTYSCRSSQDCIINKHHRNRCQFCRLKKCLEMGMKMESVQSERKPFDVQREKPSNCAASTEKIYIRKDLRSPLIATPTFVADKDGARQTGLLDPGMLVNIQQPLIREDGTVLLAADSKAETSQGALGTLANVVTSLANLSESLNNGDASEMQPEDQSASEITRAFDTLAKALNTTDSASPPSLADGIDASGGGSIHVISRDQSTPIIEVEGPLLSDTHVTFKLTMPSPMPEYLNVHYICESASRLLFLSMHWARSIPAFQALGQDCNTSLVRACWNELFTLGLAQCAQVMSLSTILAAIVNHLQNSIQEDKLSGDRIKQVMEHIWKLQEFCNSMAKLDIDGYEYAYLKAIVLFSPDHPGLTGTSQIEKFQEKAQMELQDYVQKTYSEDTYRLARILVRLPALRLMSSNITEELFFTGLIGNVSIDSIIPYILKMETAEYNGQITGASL

Substance	% coverage [1]	total peptides [1]	% coverage [2]	total peptides [2]	% coverage [3]	total peptides [3]
SFPQ (from UniProt Q8VIJ6 1-699)	18.2%	10 peptides	15.9%	8 peptides	15.3%	12 peptides
NonO (from UniProt Q99K48 1-473)	11%	7 peptides	17.8%	9 peptides	7.8%	10 peptides
CAPER (from UniProt Q8VH51 2-530)	2.6%	1 peptides	4.9%	2 peptides		
PSPC1 (from UniProt Q8R326 1-523)	4.6%	2 peptides	7.8%	3 peptides	3.3%	1 peptides
transcriptional intermediary factor (TIF)-1beta (from UniProt Q62318 2-834)	1.8%	1 peptides	9%	6 peptides	12.7%	16 peptides
HCF1 (Host Cell Factor 1) (from UniProt Q61191 2-2045)	0.8%	1 peptides	1.4%	2 peptides	2.5%	4 peptides
HDAC2 (from UniProt P70288 1-488) (enzyme)	4.9%	2 peptides				

Other lines, results leading:

% coverage [1]	total peptides [1]	% coverage [2]	total peptides [2]	% coverage [3]	total peptides [3]	Substance
1.1%	1 peptides					Sin3A (from UniProt Q60520 1-1274)
				2.8%	2 peptides	MTA2 (from UniProt Q9R190 1-668)
4.4%	6 peptides	5.3%	4 peptides	1.1%	1 peptides	Mi2β (from UniProt Q6PDQ2 1-1915) (enzyme)
1.9%	1 peptides	6.3%	3 peptides	2%	2 peptides	RbAp48 (from UniProt Q60972 2-425)
1.8%	1 peptides	1.7%	1 peptides	8.7%	7 peptides	MTA1 (from UniProt Q8K4B0 1-715)
0.8%	1 peptides			1.4%	2 peptides	BRG1 (from UniProt Q3TKT4 1-1613) (enzyme)
10.4%	15 peptides	10.1%	14 peptides	13.5%	35 peptides	DNA methyltransferase 1 (DNMT1) (from UniProt P13864 1-1620) (enzyme)
		6.8%	3 peptides	2%	2 peptides	RbAp46 (from UniProt Q60973 2-425)
8.9%	3 peptides			4.4%	2 peptides	HDAC1 (from UniProt O09106 1-482) (enzyme)
